The supplement of paper PMC10724198
± gives the standard deviation of the averaged measurements.

System: Saccharomyces cerevisiae
Test: protein stability index of tFT-peptide fusion (C-terminal peptide) (PSI (0-1 scale)); higher = more stable (slower turnover)
Details: temperature: 30 C
Protocol: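 MPS profiling in S. cerevisiae of the yeast C-terminome library: the last 12 aa of each annotated ORF are fused to the C-terminus of a sfGFP-mCherry timer, after a GGGS linker. Cells are FACS-sorted into 8 mCherry/sfGFP bins and deep-sequenced. PSI runs from 0 (unstable) to 1 (stable); wild type and das1Δ backgrounds, two technical replicates each.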

[1] = genetic background: das1 deletion

Row | Sequence | protein stability index [1] | protein stability index (genetic background: wild type)
1 | GFADLDNFMSSL [HAA1 C-terminal 12 aa] | 0.686 ± 0.039 | 0.689 ± 0.033
2 | GGFLSFGGGYDE [AIM25 C-terminal 12 aa] | 0.712 ± 0.034 | 0.726 ± 0.013
3 | GGFSTEFNSCDT [MLF3 C-terminal 12 aa] | 0.719 ± 0.019 | 0.721 ± 0.023
4 | GGGASSIVIEKI [ERG10 C-terminal 12 aa] | 0.697 ± 0.035 | 0.694 ± 0.011
5 | GGQNSPGDMAVA [YDL199C C-terminal 12 aa] | 0.692 ± 0.011 | 0.741 ± 0.068
6 | GHNDGDINVWTL [CAF4 C-terminal 12 aa] | 0.7185 ± 0.0052 | 0.7273 ± 0.0028
7 | GIDLNSIKWSGH [NFS1 C-terminal 12 aa] | 0.718 ± 0.012 | 0.709 ± 0.012
8 | GINAGEIEIPEN [RPL12A C-terminal 12 aa] | 0.692 ± 0.0082 | 0.698 ± 0.012
9 | GIPEEFKEFTEV [MND1 C-terminal 12 aa] | 0.7022 ± 0.0026 | 0.7181 ± 0.0035
10 | GIPNLLLPPHLV [TRM112 C-terminal 12 aa] | 0.707 ± 0.014 | 0.691 ± 0.007
11 | GIVPGDCLQEYD [FUS1 C-terminal 12 aa] | 0.702 ± 0.0059 | 0.685 ± 0.016
12 | GKEHRFGLHIRS [DPH6 C-terminal 12 aa] | 0.6887 ± 0.0022 | 0.698 ± 0.026
13 | GKLAEILKPVFQ [GRX2 C-terminal 12 aa] | 0.706 ± 0.011 | 0.677 ± 0.0068
14 | GKQKQLLFHIGV [HEL2 C-terminal 12 aa] | 0.6865 ± 0.0042 | 0.718 ± 0.035
15 | GKQLLSPMGRAF [TKL2 C-terminal 12 aa] | 0.679 ± 0.022 | 0.6529 ± 0.0014
16 | GLEHSDPFSTFY [DBF2 C-terminal 12 aa] | 0.71206 ± 0.0003 | 0.712 ± 0.025
17 | GLNEVTRLIKGL [HTS1 C-terminal 12 aa] | 0.695 ± 0.011 | 0.641 ± 0.027
18 | GLRYDMVHKLIS [SLH1 C-terminal 12 aa] | 0.688 ± 0.025 | 0.212 ± 0.028
19 | GMISKSLKIPKP [CHO1 C-terminal 12 aa] | 0.661 ± 0.0085 | 0.698 ± 0.0082
20 | GNIVSQDLLDLF [APL2 C-terminal 12 aa] | 0.724 ± 0.034 | 0.7 ± 0.012
21 | GPSVMCTLYLTF [ARE2 C-terminal 12 aa] | 0.5849 ± 0.0035 | 0.59105 ± 0.00058

Row | Sequence | protein stability index [1] | protein stability index (genetic background: wild type)
22 | GQALLDQFAKFK [LSC1 C-terminal 12 aa] | 0.721 ± 0.058 | 0.687 ± 0.021
23 | GSNELLSILHRK [DCP2 C-terminal 12 aa] | 0.73 ± 0.018 | 0.694 ± 0.059
24 | GSSVPLDLTLFT [VRP1 C-terminal 12 aa] | 0.728 ± 0.012 | 0.714 ± 0.0093
25 | GSVCFIMDYFTG [VPS62 C-terminal 12 aa] | 0.706 ± 0.013 | 0.677 ± 0.015
26 | GSYATRAYGQKK [FDH1 C-terminal 12 aa] | 0.694 ± 0.011 | 0.688 ± 0.018
27 | GWDRLVEARSQI [EMW1 C-terminal 12 aa] | 0.7268 ± 0.0039 | 0.708 ± 0.027
28 | HAERERENMIYD [YGL108C C-terminal 12 aa] | 0.7122 ± 0.0035 | 0.695 ± 0.029
29 | HAQKRVSNASAR [SKI6 C-terminal 12 aa] | 0.6983 ± 0.0028 | 0.6988 ± 0.0036
30 | HCLSNSASHSCG [YGR018C C-terminal 12 aa] | 0.675 ± 0.014 | 0.64 ± 0.014
31 | HFNSSSPQKVEF [LSM4 C-terminal 12 aa] | 0.721 ± 0.012 | 0.738 ± 0.03
32 | HGHHNSSTSGHK [PBP1 C-terminal 12 aa] | 0.694 ± 0.015 | 0.714 ± 0.0077
33 | HKTNLTRGSFYS [YIR020W-A C-terminal 12 aa] | 0.70525 ± 6.6e-05 | 0.708 ± 0.041
34 | HLGDPLWNFSVE [TMA20 C-terminal 12 aa] | 0.7244 ± 0.0043 | 0.707 ± 0.01
35 | HLNESVYSKPLP [YIL028W C-terminal 12 aa] | 0.6938 ± 0.0028 | 0.678 ± 0.065
36 | HPNIDALLKKTE [MST27 C-terminal 12 aa] | 0.686 ± 0.014 | 0.654 ± 0.035
37 | HSNTLKRKIEQV [PUS4 C-terminal 12 aa] | 0.7252 ± 0.0013 | 0.697 ± 0.012
38 | HTRRAFLIPFVF [TSC13 C-terminal 12 aa] | 0.547 ± 0.02 | 0.241 ± 0.011
39 | HVAPYAIIPFII [DFG10 C-terminal 12 aa] | 0.724 ± 0.0075 | 0.151 ± 0.024
40 | HWRSVYDEFGEL [APE1 C-terminal 12 aa] | 0.721 ± 0.01 | 0.701 ± 0.024
41 | IAEEIISMFAEN [YNR064C C-terminal 12 aa] | 0.692 ± 0.031 | 0.723 ± 0.016
